± gives the uncertainty stated by the source.

This data set in a line: amyloid nucleation score (Sup35N fusion, yeast selection) (log enrichment); library NNK3; higher = more nucleation; inactive = no reads after selection. The essentials: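 Plasmid inserts were Illumina-sequenced at input and output from psi-negative yeast expressing Sup35N fused to peptides of 20 random codons. The yeast were induced with 100 μM copper sulfate for 24 hours and grown 7 days at 30°C on medium lacking adenine and uracil, and sequences with under 100 input reads were excluded. Nucleation score is the DiMSum log enrichment of output over input reads, centred on the mode score of non-aggregating sequences.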
As to LVTSTSMG, the amyloid nucleation score was 2.77 ± 0.068.

For LVVDYLEFCTFLVDVENIWT, the amyloid nucleation score entry is “inactive”.

With LVVGVFKGSRSYVFK, the amyloid nucleation score entry is “inactive”.

LVVIG: the amyloid nucleation score entry is “inactive”.

The substance LVVLFGPNFLIPVGLRIAVN came in with an amyloid nucleation score of 0.245 ± 0.37.

LVWSSRPTSW: the amyloid nucleation score result was “inactive”.

In the case of LVYREGYIWVMFLIYSFWTV, the amyloid nucleation score result was “inactive”.

Turning to LWIWR, the amyloid nucleation score is -0.43 ± 0.7.

For the substance LWKVRCSSGHGEIYAYCDMA, the amyloid nucleation score result is “inactive”.

As to LWLFSGCFGYYVILATLYFL, the amyloid nucleation score result is “inactive”.

LWPRRADVKQASRQPDYQCV returned an amyloid nucleation score of -0.727 ± 1.

On to LYAINLWLAVFYRLQQFMDV, for which the amyloid nucleation score entry was “inactive”.

As to LYDSIVHESKRLLATDRIRF, the amyloid nucleation score result is “inactive”.

LYFCKNKYTCWSACVNSGFN: the amyloid nucleation score result is “inactive”.

For the substance LYFMCTNRQVL, the amyloid nucleation score entry was “inactive”.

As to LYFNWWTRGTAMLYGI, the amyloid nucleation score result is “inactive”.

LYFSFIFNLSIQGDAEFVSN showed an amyloid nucleation score of 2.49 ± 0.051.

Regarding LYGAWSNIPLYMFSFHFMYR, the amyloid nucleation score result was “inactive”.

For LYGDL, the amyloid nucleation score entry was “inactive”.

Take LYIIFHNKYFLVEMGNYNCC: the amyloid nucleation score turned out to be 1.88 ± 0.07.

Turning to LYITMRNVF, the amyloid nucleation score entry was “inactive”.

In turn, LYKSNPLFPCQFCLISGKFC yielded an amyloid nucleation score of 0.868 ± 0.12.

Turning to LYLGTSYHRNC, the amyloid nucleation score result was “inactive”.

On to LYMKSTKLVLTKRDISTFRC, for which the amyloid nucleation score came to 1.11 ± 0.14.

Consider LYMYYWLSYVV, for which the amyloid nucleation score entry was “inactive”.

In the case of LYNFRECTQTSFISFVCQLV, the amyloid nucleation score result is “inactive”.

LYRAIHHNKFLESACLRYAL: the amyloid nucleation score entry is “inactive”.

Consider LYRVVYFDALKNCGYVVSFW, for which the amyloid nucleation score entry is “inactive”.

On to LYSCRFMNLKTYLVL, for which the amyloid nucleation score entry was “inactive”.

In the case of LYSGFI, the amyloid nucleation score result is “inactive”.

For the substance LYSVLGVVSTDSRRDAEWCQ, the amyloid nucleation score entry is “inactive”.

Take LYVTRVSVSVVTYRFTCKRV: the amyloid nucleation score entry is “inactive”.

With MAEPTL, the amyloid nucleation score entry was “inactive”.

For the substance MAHDEYWTGCVTGYKELEVM, the amyloid nucleation score result is “inactive”.

With MAVSRK, the amyloid nucleation score result was “inactive”.

Turning to MCKMLFSFLCLHKYCWVNVL, the amyloid nucleation score result is “inactive”.

With MCLSMVKISKNKLSFTGFLI, the amyloid nucleation score result is “inactive”.

On to MCPHKGIRSISLMIG, for which the amyloid nucleation score result is “inactive”.

Take MCRVV: the amyloid nucleation score is -0.294 ± 0.93.

On to MCSPYFMSTSNTIFQSTRYG, for which the amyloid nucleation score was 1.12 ± 0.12.

With MDAYRNHFMFTIIKFYSCES, the amyloid nucleation score result was “inactive”.

MDPESVWED: the amyloid nucleation score entry was “inactive”.

MDRYFQYPMQDMAQGTVRRD came in with an amyloid nucleation score of -0.56 ± 1.7.

For the substance MELYPLLVGNFSIQKKVECN, the amyloid nucleation score entry was “inactive”.

For METCPLCIICLYGKWIRFSR, the amyloid nucleation score result was “inactive”.

For the substance MEVFFTSTFIGEFNRVCDTY, the amyloid nucleation score result was “inactive”.

Regarding MFDIVNKTSELL, the amyloid nucleation score result was “inactive”.

With MFECNWAIFRREFLRLVCTV, the amyloid nucleation score result was “inactive”.

Turning to MFEIIGHRRMLFIFYNMCYR, the amyloid nucleation score result was “inactive”.

Regarding MFFELSLIISCFTEV, the amyloid nucleation score is 1.42 ± 0.11.

Consider MFLCYNVLVVTESLGLAHLD, for which the amyloid nucleation score entry is “inactive”.

For MFNFEFLC, the amyloid nucleation score amounted to 2.33 ± 0.085.

Consider MFVVMWVDYLAEHMFYGRWW, for which the amyloid nucleation score result was “inactive”.

Turning to MFWCDNSGIMGADKGVALSW, the amyloid nucleation score result was “inactive”.

Regarding MGEPGVDAFNRLTPKWCLIP, the amyloid nucleation score entry was “inactive”.

For MGNAEEIAIHDSSAWVVVAR, the amyloid nucleation score result is “inactive”.

MGQFVRYLMADSCL: the amyloid nucleation score entry was “inactive”.

For the substance MHAMCQLWCSS, the amyloid nucleation score was -0.323 ± 1.4.

With MHAVDNNLRVNIIMSVLLYK, the amyloid nucleation score result is “inactive”.

As to MHLLLQRIWVLQAK, the amyloid nucleation score entry was “inactive”.

With MHYMRFLWSGLLWASVETFV, the amyloid nucleation score entry was “inactive”.

MICRSSGFLYGCSWFGILYL: the amyloid nucleation score entry was “inactive”.

With MIDIKCNERAFSEYRFWCRW, the amyloid nucleation score was determined as 0.141 ± 0.42.

Turning to MIKMAIRNLGYCSDYRTLCR, the amyloid nucleation score entry was “inactive”.

Take MILYPSYLPYLRMVDTTY: the amyloid nucleation score result was “inactive”.

Turning to MISICCGIPCLFIFWFRASA, the amyloid nucleation score entry is “inactive”.

Take MIVVHEFLKGYVFSYRLYNL: the amyloid nucleation score entry was “inactive”.

On to MIWAEQGFFVRWWDLFA, for which the amyloid nucleation score entry is “inactive”.

With MIWFVLL, the amyloid nucleation score was 2.17 ± 0.089.

In the case of MIWWYGVRSMIIDTGWYMHC, the amyloid nucleation score result is “inactive”.

Turning to MKFPEFQASCL, the amyloid nucleation score result is “inactive”.

In the case of MKSKKPNSLDENYGSMRHF, the amyloid nucleation score result was “inactive”.

On to MKSQVHNIKWLPTCS, for which the amyloid nucleation score result was “inactive”.

Take MKVWFSLPRILGGVKGTANK: the amyloid nucleation score entry was “inactive”.

As to MKWNPLDQTKL, the amyloid nucleation score entry is “inactive”.

Consider MKYAFRFCRPSVRWVYDPRL, for which the amyloid nucleation score result is “inactive”.

Consider MLAHGFCQVSEWSRALFLRV, for which the amyloid nucleation score was -0.244 ± 1.5.

Regarding MLCAPVANLYCKHPWDS, the amyloid nucleation score result is “inactive”.

With MLEGQSSCRVITDLARL, the amyloid nucleation score result was “inactive”.

Consider MLEYRVTARDGVLWEMGFGY, for which the amyloid nucleation score entry is “inactive”.

MLFANRHNLESGWSL: the amyloid nucleation score result was “inactive”.

For MLFVEFSMGSHCRET, the amyloid nucleation score is 1.53 ± 0.1.

As to MLHLYQIIMRPYTLSGWWYY, the amyloid nucleation score entry is “inactive”.

Take MLLDTLCNHLRVYKYVRGDG: the amyloid nucleation score result is “inactive”.

Take MLSGWFGLMIGCTAVVWSDS: the amyloid nucleation score entry was “inactive”.

In the case of MLSLSLYKLFLRWKRTSSHD, the amyloid nucleation score worked out at 0.904 ± 0.16.

MLSMTRCAHIDGGDWFKMAV: the amyloid nucleation score entry is “inactive”.

As to MLVAGPLGQE, the amyloid nucleation score entry was “inactive”.

MLVASGDTAENYSTSVYCV: the amyloid nucleation score entry was “inactive”.

Turning to MLWLNNGGLYWIALIFEMSS, the amyloid nucleation score result is “inactive”.

Consider MMLGVLYATLWPLLKLDCGE, for which the amyloid nucleation score result was “inactive”.

With MMNVMFD, the amyloid nucleation score is 0.661 ± 0.23.

MMTTGLLGVLTSCNSMT: the amyloid nucleation score result was “inactive”.

As to MNCWYFLLGACWITIKHLFY, the amyloid nucleation score result is “inactive”.

Regarding MNFGFWGTVHWSHASNHVGS, the amyloid nucleation score result is “inactive”.

On to MNFGYNNSFAIYSVFYSYRC, for which the amyloid nucleation score was found to be 2.69 ± 0.055.

For MNLDNFLFKVCLGSCF, the amyloid nucleation score result was “inactive”.

For the substance MNNCLSVDKCFHFMLGFSP, the amyloid nucleation score result is “inactive”.

Turning to MNRNVTSRVRTPPVCVRVRF, the amyloid nucleation score result was “inactive”.

The substance MNVFWCACYRCSDRVSMKVW returned an amyloid nucleation score of 2 ± 0.058.

MNWYRIFVVNFSCKRLYSVK registered an amyloid nucleation score of 1.64 ± 0.067.

MPCVMILYVIYSIY yielded an amyloid nucleation score of 0.013 ± 0.59.

Consider MPEKERAKSSPYLSEPRPHD, for which the amyloid nucleation score entry was “inactive”.

Consider MPEVCDLMDHIICVCYGYID, for which the amyloid nucleation score entry is “inactive”.

In the case of MPNLAFSG, the amyloid nucleation score was 0.006 ± 0.3.

MPPRVRYR: the amyloid nucleation score entry is “inactive”.

The substance MQLIIIWATRK displayed an amyloid nucleation score of 1.43 ± 0.14.

Take MQLSCRLGSLCSQQSNLARS: the amyloid nucleation score result is “inactive”.

Take MQSNCTVMTNPNDKRMAAWW: the amyloid nucleation score entry is “inactive”.

Consider MQYDASP, for which the amyloid nucleation score entry was “inactive”.

Consider MRKLDPFNSKP, for which the amyloid nucleation score entry is “inactive”.

On to MRNMCVLAIILILCFGTRFK, for which the amyloid nucleation score is 1.21 ± 0.08.

For MRNVVSSISRCFDMKAVQQR, the amyloid nucleation score entry is “inactive”.

As to MRWCNQDQL, the amyloid nucleation score entry is “inactive”.

On to MSCYVV, for which the amyloid nucleation score entry is “inactive”.

For MSEVPGMNDTWRVCIMDQGK, the amyloid nucleation score entry is “inactive”.

In the case of MSGLLCAEIWSRCPASFIGD, the amyloid nucleation score result is “inactive”.

With MSIMVASRLALARNVPLQKV, the amyloid nucleation score entry was “inactive”.

As to MSLNLHLKQGVFKGHTVSAL, the amyloid nucleation score result was “inactive”.

As to MSLNNGGSGSCVCPFR, the amyloid nucleation score entry is “inactive”.

For MSMFYSNRHNPVKRTSGTGL, the amyloid nucleation score entry was “inactive”.

On to MSMLYSGWAYELTLHYMRPA, for which the amyloid nucleation score entry is “inactive”.

Turning to MSMYVTSF, the amyloid nucleation score entry is “inactive”.

In the case of MSNRHWM, the amyloid nucleation score result was “inactive”.

In the case of MSPIDGDDSG, the amyloid nucleation score entry is “inactive”.

Take MSPPCFNRMSYIMLPWFVML: the amyloid nucleation score entry is “inactive”.

The substance MSSSIILWNFCNMDRCSLLV registered an amyloid nucleation score of -0.084 ± 0.49.

In the case of MSTMFVPLSCFSENKRQTLS, the amyloid nucleation score entry is “inactive”.

MSVRGHSSTVVYLCREPGLK showed an amyloid nucleation score of 0.402 ± 0.38.

Take MSYMMSSTPSVFMACLGDS: the amyloid nucleation score entry is “inactive”.

For MTLSVRMAEEQN, the amyloid nucleation score result is “inactive”.

The record behind these values is the supplement of paper PMC12042874.
